Paper PMC5063126
Ends that are not written are not given here. fluorophore = not defined here

Columns and labels:
TMR-BID BH3 = experiment: fluorescence polarisation; fluorescence anisotropy; Bcl-xL titrated into TMR-BID BH3 (5 nM) in sodium phosphate buffer (50 mM, pH 7.5) with sodium chloride (10 mM), 15 °C; fit to the Langmuir isotherm, apparent dissociation constant, at least three independent curves averaged
Bcl-xL = Bcl-xL (UniProt Q07817); experiment: not stated; fluorescently labelled peptide with Bcl-xL; data in Table S4

Kd (TMR-BID BH3)	Kd (Bcl-xL)	Molecule
27 nM	–	Bcl-xL (from UniProt Q07817-1 1-209) (domain or fragment)
–	46 nM	DC(fluorophore)AEDIGVNIARHLAQVGDSIDRSI (reading uncertain; also: fluorophore not named) [LOV-BID peptide]
